Patent US20250361297A1, “ANTI- SIGLEC-15 BINDING MOLECULES AND METHODS OF USE” (ADAPTAM THERAPEUTICS, S.L., priority 2024, published 2025)

Molecular target: human Siglec-15, full length, expressed on cells (human) (UniProt Q6ZMC9)
Assay: flow cytometry, THP-1 cells overexpressing human Siglec-15, ADC titrated, anti-human IgG-PE, gMFI

Chain of human Siglec-15, full length, expressed on cells (human) (Q6ZMC9 20-328 limits assumed): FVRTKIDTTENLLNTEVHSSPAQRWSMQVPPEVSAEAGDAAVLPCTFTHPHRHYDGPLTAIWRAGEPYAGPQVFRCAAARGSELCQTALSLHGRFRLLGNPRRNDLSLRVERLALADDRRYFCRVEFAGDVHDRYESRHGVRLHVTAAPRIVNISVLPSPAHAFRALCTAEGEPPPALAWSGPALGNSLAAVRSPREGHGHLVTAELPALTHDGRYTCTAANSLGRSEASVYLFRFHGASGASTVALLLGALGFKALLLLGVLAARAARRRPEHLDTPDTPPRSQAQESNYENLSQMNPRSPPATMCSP

B1: ZLA-1243-E01-Exatecan (protein)
VH: QVQLVQSGGGLVQPGRSLRLSCAASGFTFDDYAMHWVRQAPGKGLEWVSGISWNSGSIGYADSVKGRFTISRDNAKNSLYLQMNSLRAEDTALYYCAKGLWPSYDLDAFDIWGQGTMVTVSS
VL: QSALTQPASVSGSPGQSITLSCTGTSSDVGAYNFVSWYQQHPGTAPKLMIYEVSNRPSGVSDRFSGSKSGNTASLTISGLQAEDEADYYCSSYTSTIPPFVFGTGTKVTVL
modifications: Antibody-drug conjugate: exatecan payload joined through an MC-GGFG linker. The attachment residues are not stated and the letters cannot carry the payload.
EC50 (read off the curve): 3 nM
